Some results are limits rather than exact numbers.

B1: monoclonal antibody ICR-8.1 (antibody, mouse IgG1, V domains shown)
VH: EIQLQQTGPELVKPGASVKISCKASGYSFTDCIILWVKQSHGKGLEWIGKINPYFGTTTYNLKFKGKATLTVDKSSSTAHMQLNSLTSEDSAVYYCARKEAYPDAMDYWGQGTSVTVSS
VL: DAVMTQTPLSLPVSLGDQASISCRSSQSLVHSNGDTYLHWYLQKPGQSPQLLIYKVSNRFSGVPDRFSGSGSGTDFTLKLSRVEAEDLGVYFCSQSTHVPYTFGGGTKLEIK
notes: murine IgG1, kappa; hybridoma ATCC HB 11232; also called 46D7E
B2: soluble human ICAM-R (receptor)
chain: QEFLLRVEPQNPVLSAGGSLFVNCSTDCPSSEKIALETSLSKELVASGMGWAAFNLSNVTGNSRILCSVYCNGSQITGSSNITVYGLPERVELAPLPPWQPVGQNFTLRCQVEGGSPRTSLTVVLLRWEEELSRQPAVEEPAEVTATVLASRDDHGAPFSCRTELDMQPQGLGLFVNTSAPRQLRTFVLPVTPPRLVAPRFLEVETSWPVDCTLDGLFPASEAQVYLALGDQMLNATVMNHGDTLTATATATARADQEGAREIVCNVTLGGERREARENLTVFSFLGPIVNLSEPTAHEGSTVTVSCMAGARVQVTLDGVPAAAPGQTAQLQLNATESDDGRSFFCSATLEVDGEFLHRNSSVQLRVLYGPKIDRATCPQHLKWKDKTRHVLQCQARGNPYPELRCLKEGSSREVPVGIPFFVNVTHNGTYQCQASSSRGKYTLVVVMDIEAFSSH
notes: baculovirus, Sf-9 cells, lentil lectin purified; also called shICAM-R; soluble ICAM-R
B3: monoclonal antibody ICR-1.1 (antibody, mouse IgG2a, V domains shown)
VH: QVQLQQSGAELAKPGASVKMSCKASGYTFTVYWMHWVKQRPGQGLEWIGYINPNTDYTEYNQRFQDKATLTADKSSSTAYMQLSSLTSEDSAVYYCARWGGNSYGLDYWGQGTSVTVSS
VL: QIVLTQSPALMSASPGEKVTMTCSASSSVSYIYWYQQKPRSSPKPWIYLTSNLASGVPARFSGSGSGASYSLTISIMEAEDAATYYCQQWKSIPLTFGAGTKLELK
notes: murine IgG2a, kappa; hybridoma ATCC HB 11053; also called 26E3D; 26E3D-1
B4: ICAM-2/IgG fusion protein (Fc fusion, not shown: a dimerising Fc or GST)
chain: KVFEVHVRPKKLAVEPKGSLEVNCSTTCNQPEVGGLETSLDKILLDEQAQWKHYLVSNISHDTVLQCHFTCSGKQESMNSNVSVYQPPRQVILTLQPTLVAVGKSFTIECRVPTVEPLDSLTLFLFRGNETLHYETFGKAAPAPQEATATFNSTADREDGHRNFSCLAVLDLMSRGGNIFHKHSAPKMLEIYEPVSDSQ
B5: humanized ICR-1.1 antibody HuVHK/HuVKP (antibody, human IgG4, V domains shown)
VH: QVQLVQSGAEVKKPGASVKVSCKASGYTFTVYWMHWVRQAPGQGLEWMGYINPNTDYTEYNQRFQDRVTITADKSTSTAYMELSSLRSEDTAVYYCARWGGNSYGLDYWGQGTLVTVSS
VL: DIQMTQSPSSLSASVGDRVTITCSASSSVSYIYWYQQKPGKAPKPLIYLTSNLASGVPSRFSGSGSGTDFTLTISSLQPEDFATYYCQQWKSIPLTFGQGTKLEIK
notes: human IgG4, human kappa

One experiment addresses T1, ICAM-R mutant F21V/AS (human, UniProt P32942 30-547).
T1 construct: on transfected COS cells
T1 chain: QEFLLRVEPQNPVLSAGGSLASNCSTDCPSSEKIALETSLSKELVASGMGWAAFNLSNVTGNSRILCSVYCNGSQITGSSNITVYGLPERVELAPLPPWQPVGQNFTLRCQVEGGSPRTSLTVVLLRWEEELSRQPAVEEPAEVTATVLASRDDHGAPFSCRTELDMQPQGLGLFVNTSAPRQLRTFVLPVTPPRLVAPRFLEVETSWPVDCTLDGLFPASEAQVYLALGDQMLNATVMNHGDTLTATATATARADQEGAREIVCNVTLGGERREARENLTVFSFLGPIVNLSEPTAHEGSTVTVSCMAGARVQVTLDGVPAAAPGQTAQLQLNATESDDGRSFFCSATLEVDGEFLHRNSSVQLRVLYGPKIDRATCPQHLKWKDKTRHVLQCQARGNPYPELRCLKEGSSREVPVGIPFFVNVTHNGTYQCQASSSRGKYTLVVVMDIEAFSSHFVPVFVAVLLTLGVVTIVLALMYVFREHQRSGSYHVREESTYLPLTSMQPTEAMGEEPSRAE
Nature of the experiment: FACS on COS transfectants.

The target of experiment [1] is T2, macaque ICAM-R on peripheral blood leukocytes (Macaca fascicularis, UniProt A0A2K5TJA8 30-547).
T2 construct: whole, on cells; also called monkey PBL; macaque leukocytes
T2 sequence: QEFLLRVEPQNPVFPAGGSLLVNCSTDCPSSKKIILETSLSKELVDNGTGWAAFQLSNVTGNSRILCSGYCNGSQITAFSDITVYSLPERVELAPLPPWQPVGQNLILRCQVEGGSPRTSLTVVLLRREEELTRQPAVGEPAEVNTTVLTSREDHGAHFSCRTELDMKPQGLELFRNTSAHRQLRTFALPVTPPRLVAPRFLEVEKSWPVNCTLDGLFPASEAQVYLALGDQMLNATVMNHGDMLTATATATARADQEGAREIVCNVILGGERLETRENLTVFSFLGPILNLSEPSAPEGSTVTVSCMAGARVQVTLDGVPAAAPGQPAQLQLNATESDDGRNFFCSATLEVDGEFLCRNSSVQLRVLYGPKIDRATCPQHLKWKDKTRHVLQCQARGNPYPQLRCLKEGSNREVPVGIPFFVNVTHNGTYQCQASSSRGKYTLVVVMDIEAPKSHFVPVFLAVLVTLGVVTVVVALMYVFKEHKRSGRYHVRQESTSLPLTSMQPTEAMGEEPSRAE
Nature of the experiment: FACS on Macaca fascicularis PBL.

For another experiment, the target named is T3, Gp 150,95 (CD18/CD11c) (UniProt P20702 20-1163; P05107 23-769).
T3 construct: purified, coated on plastic
Nature of the experiment: shICAM-R coated fluorescent beads on wells coated with purified Gp 150,95.

The target in another experiment is Mac-1 (CD18/CD11b) (UniProt P11215 17-1152; P05107 23-769). Nature of the experiment: neutrophil adhesion to coated chimeras with blocking antibodies.
The target in the experiment “soluble human ICAM-R” is B2. Nature of the experiment: ELISA on coated baculovirus soluble ICAM-R.
For experiment [2], the target named is T4, ICAM-R/IgG chimera, wild type (human, UniProt P32942 30-485).
T4 construct: also called ICAM-3/IgG; ICAM-R/Ig fusion protein
T4 chain: B2 chain
Nature of the experiment: ELISA on ICAM-R/Ig fusion protein. (ELISA stands for enzyme-linked immunosorbent assay.)

T3 sequence (P20702 20-1163 limits assumed, chain 1 of 2): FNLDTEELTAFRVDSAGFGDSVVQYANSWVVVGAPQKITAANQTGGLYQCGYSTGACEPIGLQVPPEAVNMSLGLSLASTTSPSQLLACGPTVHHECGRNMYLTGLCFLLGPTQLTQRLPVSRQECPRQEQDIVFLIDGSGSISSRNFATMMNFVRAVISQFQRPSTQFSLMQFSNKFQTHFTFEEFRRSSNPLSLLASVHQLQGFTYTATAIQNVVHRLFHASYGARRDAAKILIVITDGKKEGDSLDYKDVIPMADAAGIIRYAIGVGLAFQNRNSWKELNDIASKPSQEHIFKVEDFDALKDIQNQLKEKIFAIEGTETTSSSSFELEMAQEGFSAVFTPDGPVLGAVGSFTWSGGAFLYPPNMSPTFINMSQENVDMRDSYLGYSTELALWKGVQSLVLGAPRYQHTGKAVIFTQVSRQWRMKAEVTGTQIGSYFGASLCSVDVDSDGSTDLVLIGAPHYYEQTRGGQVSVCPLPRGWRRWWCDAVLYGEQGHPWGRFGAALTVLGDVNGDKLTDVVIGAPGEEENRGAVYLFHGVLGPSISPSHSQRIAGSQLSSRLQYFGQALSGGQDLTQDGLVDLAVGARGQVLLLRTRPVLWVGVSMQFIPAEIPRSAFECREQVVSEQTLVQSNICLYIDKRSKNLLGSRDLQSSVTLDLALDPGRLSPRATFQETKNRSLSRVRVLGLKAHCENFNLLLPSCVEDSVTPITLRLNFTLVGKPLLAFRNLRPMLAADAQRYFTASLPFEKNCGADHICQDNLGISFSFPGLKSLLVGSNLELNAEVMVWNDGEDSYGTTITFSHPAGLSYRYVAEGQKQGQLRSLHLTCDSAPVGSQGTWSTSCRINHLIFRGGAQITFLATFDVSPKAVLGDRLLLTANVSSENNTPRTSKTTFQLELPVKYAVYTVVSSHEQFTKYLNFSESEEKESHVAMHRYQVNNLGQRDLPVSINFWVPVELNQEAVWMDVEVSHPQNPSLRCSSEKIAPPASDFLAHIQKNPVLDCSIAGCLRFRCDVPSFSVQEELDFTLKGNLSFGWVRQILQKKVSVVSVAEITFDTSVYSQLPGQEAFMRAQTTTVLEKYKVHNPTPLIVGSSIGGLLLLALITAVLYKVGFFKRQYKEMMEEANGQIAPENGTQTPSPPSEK
T3 sequence (P05107 23-769 limits assumed, chain 2 of 2): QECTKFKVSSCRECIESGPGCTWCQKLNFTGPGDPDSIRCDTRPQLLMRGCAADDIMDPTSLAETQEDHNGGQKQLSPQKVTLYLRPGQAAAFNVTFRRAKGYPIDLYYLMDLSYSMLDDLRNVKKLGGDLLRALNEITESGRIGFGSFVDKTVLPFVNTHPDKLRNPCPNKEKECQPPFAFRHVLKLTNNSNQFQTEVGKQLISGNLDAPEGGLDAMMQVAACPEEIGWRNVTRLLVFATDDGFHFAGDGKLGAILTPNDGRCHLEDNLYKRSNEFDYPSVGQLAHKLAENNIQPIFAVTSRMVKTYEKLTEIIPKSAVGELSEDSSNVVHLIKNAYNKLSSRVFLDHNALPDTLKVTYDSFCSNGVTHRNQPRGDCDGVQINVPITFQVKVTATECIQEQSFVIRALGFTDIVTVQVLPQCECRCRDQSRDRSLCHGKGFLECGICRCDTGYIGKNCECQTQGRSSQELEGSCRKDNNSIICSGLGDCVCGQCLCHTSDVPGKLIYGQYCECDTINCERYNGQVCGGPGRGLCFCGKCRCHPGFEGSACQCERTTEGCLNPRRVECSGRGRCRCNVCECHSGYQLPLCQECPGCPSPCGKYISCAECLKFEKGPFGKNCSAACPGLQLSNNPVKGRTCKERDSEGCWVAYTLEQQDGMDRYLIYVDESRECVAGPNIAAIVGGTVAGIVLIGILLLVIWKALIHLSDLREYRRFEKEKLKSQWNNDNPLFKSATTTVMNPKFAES

For the molecule B1, the binding result (with ICAM-R mutant F21V/AS; in experiment [1]) was “no binding” throughout. Regarding B2, in the experiment with Gp 150,95 (CD18/CD11c), the binding result was “binds”.

Take B3: the binding result (with ICAM-R mutant F21V/AS; in experiment [1]) was “no binding” throughout. Turning to B4, in the experiment with Mac-1 (CD18/CD11b), the binding result is “binds”. For the molecule B5, the “binding relative to the chimeric antibody (MuVH/MuVK)” value (with soluble human ICAM-R; in experiment [2]) was not above 50 % difference in each case.

For the origin of these results see patent US20030199423A1 (published 2003).
